Measurements as given in the RNAGym collection of RNA variant scans (doi:10.7554/elife.80360).

B1: Hairpin Ribozyme (parent)
chain: GUCCUCUUUCACGUGCGCGUGAAAGAGAGAAGUGAACCAGAGAAACACACGUUGUGGUAUAUUACCUGGUA

Variants of: B1
Assay: self-cleavage, relative activity (ratio to wild type); higher = more cleavage; co-transcriptional

First: GUCCUCUUUCACGUGCGCGUGAAGGAGAGAAGUGAACCAGAGAAACACACGUUGUGGUAUAUUAUCUGGUA [A24G C65U]
Second: GUCCUCUUUCACGUGCGCGUGAACGAGAGAAGUGAACCAGAGAAACACACGUUGUGGUAUAUUAUCUGGUA [A24C C65U]
The self-cleavage of the first is lower: 0.371 for the first, 0.402 for the second.

First: GUCCUCUUUCACGUGCGCGUGAACGAGAGAAGUGAACCAGAGAAACACACGUUGUGGUAUAUUAGCUGGUA [A24C C65G]
Second: GUCCUCUUUCACGUGCGCGUGAACGAGAGAAGUGAACCAGAGAAACACACGUUGUGGUAUAUUAACUGGUA [A24C C65A]
The self-cleavage of the first is lower: 0.296 for the first, 0.922 for the second.

Compared with GUCCUCUUUCACGUGCGCGUGAACGAGAGAAGUGAACCAGAGAAACACACGUUGUGGUAUAUGACCUGGUA [A24C U63G], GUCCUCUUUCACGUGCGCGUGAACGAGAGAAGUGAACCAGAGAAACACACGUUGUGGUAUAUAACCUGGUA [A24C U63A] is lower in self-cleavage: 0.0877 for the first, 0.0496 for the second.

Going from GUCCUCUUUCACGUGCGCGUGAACGAGAGAAGUGAACCAGAGAAACACACGUUGUAGUAUAUUACCUGGUA [A24C G56A] to GUCCUCUUUCACGUGCGCGUGAACGAGAGAAGUGAACCAGAGAAACACACGUUGUCGUAUAUUACCUGGUA [A24C G56C], the self-cleavage rises from 0.1 to 0.115.

Compared with GUCCUCUUUCACGUGCGCGUGAACGAGAGAAGUGAACCAGAGAAACACACGUUGUUGUAUAUUACCUGGUA [A24C G56U], GUCCUCUUUCACGUGCGCGUGAACGAGAGAAGUGAACCAGAGAAACACACGUUGUGGUAUAUUACCUGAUA [A24C G69A] is higher in self-cleavage: 0.231 for the first, 0.484 for the second.

Going from GUCCUCUUUCACGUGCGCGUGAACGAGAGAAGUGAACCAGAGAAACACACGUUGUGGUAUAUUACCUGCUA [A24C G69C] to GUCCUCUUUCACGUGCGCGUGAACGAGAGAAGUGAACCAGAGAAACAAACGUUGUGGUAUAUUACCUGGUA [A24C C48A], the self-cleavage falls from 0.218 to 0.172.

First: GUCCUCUUUCACGUGCGCGUGAACGAGAGAAGUGAACCAGGGAAACACACGUUGUGGUAUAUUACCUGGUA [A24C A41G]
Second: GUCCUCUUUCACGUGCGCGUGAACGAGAGAAGUGAACCAGAGAAACACACGUUGUGGCAUAUUACCUGGUA [A24C U58C]
The self-cleavage of the first is lower: 0.846 for the first, 1.11 for the second.

Compared with GUCCUCUUUCACGUGCGCGUGAAGGAGAGAAGUGAACCAGAGAAACACACGUUGUGGUAUAUUACCUGGUA [A24G], GUCCUCUUUCACGUGCGCGUGAAGGAGAGAAGUGAACCAGAGAACCACACGUUGUGGUAUAUUACCUGGUA [A24G A45C] is lower in self-cleavage: 0.87 for the first, 0.235 for the second.

First: GUCCUCUUUCACGUGCGCGUGAAGGAGAGAAGUGAACCAGAGAAUCACACGUUGUGGUAUAUUACCUGGUA [A24G A45U]
Second: GUCCUCUUUCACGUGCGCGUGAAGGAGAGAAGUGAACCAGAGAAACACACGUUGUGGUAUAUUACGUGGUA [A24G C66G]
The self-cleavage of the first is lower: 0.145 for the first, 0.226 for the second.

First: GUCCUCUUUCACGUGCGCGUGAACGAGAGAAGUGAACCAGAGAAACACCCGUUGUGGUAUAUUACCUGGUA [A24C A49C]
Second: GUCCUCUUUCACGUGCGCGUGAACGAGAGAAGUGAACCAGAGAAACACACGUUGUGGUAUAUUACCUGGCA [A24C U70C]
The self-cleavage of the first is lower: 0.308 for the first, 0.778 for the second.

Compared with GUCCUCUUUCACGUGCGCGUGAACGAGAGAAGUGAACCAGAGAAACACACGUUGUGGUAUAUUACCUGGGA [A24C U70G], GUCCUCUUUCACGUGCGCGUGAAGGAGAGACGUGAACCAGAGAAACACACGUUGUGGUAUAUUACCUGGUA [A24G A31C] is lower in self-cleavage: 0.666 for the first, 0.041 for the second.

Compared with GUCCUCUUUCACGUGCGCGUGAAGGAGAGAUGUGAACCAGAGAAACACACGUUGUGGUAUAUUACCUGGUA [A24G A31U], GUCCUCUUUCACGUGCGCGUGAAGGAGAGAAGUGAGCCAGAGAAACACACGUUGUGGUAUAUUACCUGGUA [A24G A36G] is higher in self-cleavage: 0.111 for the first, 0.679 for the second.

Going from GUCCUCUUUCACGUGCGCGUGAACGAGAGAAGCGAACCAGAGAAACACACGUUGUGGUAUAUUACCUGGUA [A24C U33C] to GUCCUCUUUCACGUGCGCGUGAAGGACAGAAGUGAACCAGAGAAACACACGUUGUGGUAUAUUACCUGGUA [A24G G27C], the self-cleavage rises from 0.16 to 0.171.

Going from GUCCUCUUUCACGUGCGCGUGAACGAGAGAAGUGAACCAGAGAAACACACGUUGUGAUAUAUUACCUGGUA [A24C G57A] to GUCCUCUUUCACGUGCGCGUGAAGGAGAGAAGUGAACCAGAGAUACACACGUUGUGGUAUAUUACCUGGUA [A24G A44U], the self-cleavage falls from 0.24 to 0.0876.

First: GUCCUCUUUCACGUGCGCGUGAAGGAGAGAAGUGAACCAGAGACACACACGUUGUGGUAUAUUACCUGGUA [A24G A44C]
Second: GUCCUCUUUCACGUGCGCGUGAACGAGAGAAGUGAACGAGAGAAACACACGUUGUGGUAUAUUACCUGGUA [A24C C38G]
The self-cleavage of the first is lower: 0.0644 for the first, 0.186 for the second.

First: GUCCUCUUUCACGUGCGCGUGAACGAGAGAAGUGAACUAGAGAAACACACGUUGUGGUAUAUUACCUGGUA [A24C C38U]
Second: GUCCUCUUUCACGUGCGCGUGAACGAGAGAAGUGAACCGGAGAAACACACGUUGUGGUAUAUUACCUGGUA [A24C A39G]
The self-cleavage of the first is higher: 0.5 for the first, 0.28 for the second.

Compared with GUCCUCUUUCACGUGCGCGUGAAGGAGAGAAGUGAACCAGAGAAACUCACGUUGUGGUAUAUUACCUGGUA [A24G A47U], GUCCUCUUUCACGUGCGCGUGAACGAGAGAAGUGAACCAGAGAAAUACACGUUGUGGUAUAUUACCUGGUA [A24C C46U] is higher in self-cleavage: 0.0569 for the first, 0.142 for the second.

Compared with GUCCUCUUUCACGUGCGCGUGAACGAGAGAAGUGAACCAGAGAAAGACACGUUGUGGUAUAUUACCUGGUA [A24C C46G], GUCCUCUUUCACGUGCGCGUGAACGAGAGAAGUGAACCAGAGAAAAACACGUUGUGGUAUAUUACCUGGUA [A24C C46A] is higher in self-cleavage: 0.105 for the first, 0.134 for the second.

Going from GUCCUCUUUCACGUGCGCGUGAACGAGAGAAGUGACCCAGAGAAACACACGUUGUGGUAUAUUACCUGGUA [A24C A36C] to GUCCUCUUUCACGUGCGCGUGAACGAGAGAAGUGAACCAGAGAGACACACGUUGUGGUAUAUUACCUGGUA [A24C A44G], the self-cleavage falls from 0.631 to 0.104.
